Laboratory results: paper PMC9671094

Biological target: ApexGT2 trimer (HIV-1 isolate BG505)
Assay: cryo-EM structure

B1: PCT64 35S Fab (Fab, V domains shown)
VH: EVQLVESGGGLVKPGGSLRLACVGSEFTFSEAWMTWVRQAPGKGLEWVGHMRPTTEGGAKDYAAAVRGRFTIARDDSKSTLYLQMNSLKIEDTGVYYCMTGVERGDFWSDDYSQHYNTYLIDVWGKGTTVTVSS
VL: EIVLTQSPGTLSLSPGDRATLSCRATQSVGGDYFAWYQQRPGQSPRLLIYGTSRRAAGIPDRFSGSGSGTDFTLTIDRLEPEDFAVYYCRQYETSFTFGPGTKVDIK
B1 was tested, and the stoichiometry N (Fab per trimer) was 1.
